Experimental data from patent publication US6872537 (University of California, dated 2005).

B1: baculovirus-expressed S. purpuratus katanin p80 subunit with N-terminal His(6) tag (other)
chain: HHHHHHMATKRAWKLQELVAHSSNVNCLALGPMSGRVMVTGGEDKKVNLWAVGKQNCIISLSGHTSPVDSVKFNSSEELVVAGSQSGTMKIYDLEPAKIVRTLTGHRNSIRCMDFHPFGEFVASGSTDTNVKLWDVRRKGCIYTYKGHSDQVNMIKFSPDGKWLVTASEDTTIKLWDLTMGKLFQEFKNHTGGVTGIEFHPNEFLLASGSSDRTVQFWDLETFQLVSSTSPGASAVRSISFHPDGSYLFCSSQDMLHAFGWEPIRCFDTFSVFWGKVADTVIASTQLIGASFNATNVSVYVADLSRMSTTGIAQEPQSQPSKTPSGGAEEVPSKPLTASGRKNFVRERPHTTSSKQRQPDVKSEPERQSPTQDEGVKDDDATDIKDPDSYAKIFSPKTRVDHSPERNAQPFPAPLDVPGAQEPEPFKHPPKPAAAAAVAPVSRAPAPSASDWQPAQANPAPNRVPAATKPVPAQEVAPSRKPDPISTIIPSDRNKPANLDMDAFLPPAHAQQAPRVNAPASRKQSDSERIEGLRKGHDSMCQVLSSRHRNLDVVRAIWTAGDAKTSVESVVNMKDQAILVDILNIMLLKKSLWNLDMCVVVLPRLKELLSSKYENYVHTSCACLKLILKNFTSLFNQNIKCPPSGIDITREERYNKCSKCYSYLIATRGYVEEKQHVSGKLGSSFRELHLLLDQLE
notes: Expressed from pFastBac HT in Sf9 cells; also called p80 katanin; recombinant p80
B2: baculovirus-expressed S. purpuratus katanin p60 subunit with N-terminal His(6) tag (enzyme)
chain: HHHHHHMSVDEICENTKMGREYALLGNYETSLVYYQGVLQQIQKLLTSVHEPQRKHQWQTIRQELSQEYEHVKNITKTLNGFKSEPAAPEPAPNHGRAAPFSHHQHAAKPAAAEPARDPDVWPPPTPVDHRPSPPYQRAARKDPPRRSEPSKPANRAPGNDRGGRGPSDRRGDARSGGGGRGGARGSDKDKNRGGKSDKDKKAPSGEEGDEKKFDPAGYDKDLVENLERDIVQRNPNVHWADIAGLTEAKRLLEEAVVLPLWMPDYFKGIRRPWKGVLMVGPPGTGKTMLAKAVATECGTTFFNVSSASLTSKYHGESEKLVRLLFEMARFYAPSTIFIDEIDSICSKRGTGSEHEASRRVKSELLIQMDGVSGPSAGEESSKMVMVLAATNFPWDIDEALRRRLEKRIYIPLPEIDGREQLLRINLKEVPLADDIDLKSIAEKMDGYSGADITNVCRDASMMAMRRRIQGLRPEEIRHIPKEELNQPSTPADFLLALQKVSKSVGKEDLVKYMAWMEEFGSV
notes: Expressed from pFastBac HT in Sf9 cells; also called p60 katanin; recombinant p60

How the values were obtained:
[1] = molecular target: B2; test: Ni-NTA purification of co-expressed His-tagged subunits, Coomassie-stained SDS-PAGE
[2] = molecular target: B1; test: co-immunoprecipitation from insect cells co-infected with p60 and p80 baculoviruses, SDS-PAGE with Coomassie
Experimental: 6xHis-tagged (SEQ ID NO:14) katanin subunits were purified from lysates of baculovirus-infected insect cells by binding to Ni^2+-NTA Superflow followed by elution with imidazole, as described in the Experimental Procedures. […] Proteins bound to the resin were analyzed by SDS-PAGE followed by staining with Coomassie.
After equilibration in TBST, 20–40 μl of antibody beads were added to katanin samples diluted in TBST containing 1–2 mg/ml soybean trypsin inhibitor (SBTI). The immunoprecipitations were incubated at 4° C. for 1–2 hr, washed five times with 1 ml of ice-cold TBST, and eluted in SDS-containing sample buffer.

[3] = molecular target: the molecule itself; test: rotary-shadowing electron microscopy of recombinant p60 on mica (self-association into rings)

Binder	p60:p80 molar ratio in the purified co-expressed protein [1] [mol p80 per mol p60]	binding result [2]	binding result [3]
B1	~0.9	–	–
B2	–	binds	binds
